# According to patent US20180311371A1 (Hoffmann-La Roche, published 2018):
# T1: human TPBG (trophoblast glycoprotein), full length, cell surface expressed (human, UniProt Q13641 32-420)
# T1 sequence: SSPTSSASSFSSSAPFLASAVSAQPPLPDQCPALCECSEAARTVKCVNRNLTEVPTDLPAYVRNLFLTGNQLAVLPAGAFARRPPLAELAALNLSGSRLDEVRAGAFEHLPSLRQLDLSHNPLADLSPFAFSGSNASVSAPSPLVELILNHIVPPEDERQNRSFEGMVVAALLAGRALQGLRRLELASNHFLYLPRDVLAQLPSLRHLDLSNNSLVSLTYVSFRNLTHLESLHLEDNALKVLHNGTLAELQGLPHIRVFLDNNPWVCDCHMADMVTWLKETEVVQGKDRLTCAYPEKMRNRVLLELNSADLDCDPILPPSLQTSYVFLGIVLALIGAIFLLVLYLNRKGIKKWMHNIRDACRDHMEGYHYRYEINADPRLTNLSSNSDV
# T2: huTPBG (recombinant human TPBG immobilised on the Biacore chip) (human, UniProt Q13641 32-355, limits assumed)
# T2 construct: also called human TPBG antigen
# T2 sequence: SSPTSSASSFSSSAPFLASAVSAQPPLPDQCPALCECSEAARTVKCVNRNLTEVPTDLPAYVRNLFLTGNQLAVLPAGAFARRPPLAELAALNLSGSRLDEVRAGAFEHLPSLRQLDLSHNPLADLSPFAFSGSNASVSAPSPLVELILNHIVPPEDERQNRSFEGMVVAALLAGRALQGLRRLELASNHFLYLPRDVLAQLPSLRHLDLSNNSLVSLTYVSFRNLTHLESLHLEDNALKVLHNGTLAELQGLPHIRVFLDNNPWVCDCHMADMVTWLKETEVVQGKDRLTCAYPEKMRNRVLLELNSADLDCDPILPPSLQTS
# T3: human TPBG extracellular domain, His6Avi, biotinylated (human, biotinylated)
# T3 construct: also called huTPBG; human TPBG-AviHis
# T3 chain: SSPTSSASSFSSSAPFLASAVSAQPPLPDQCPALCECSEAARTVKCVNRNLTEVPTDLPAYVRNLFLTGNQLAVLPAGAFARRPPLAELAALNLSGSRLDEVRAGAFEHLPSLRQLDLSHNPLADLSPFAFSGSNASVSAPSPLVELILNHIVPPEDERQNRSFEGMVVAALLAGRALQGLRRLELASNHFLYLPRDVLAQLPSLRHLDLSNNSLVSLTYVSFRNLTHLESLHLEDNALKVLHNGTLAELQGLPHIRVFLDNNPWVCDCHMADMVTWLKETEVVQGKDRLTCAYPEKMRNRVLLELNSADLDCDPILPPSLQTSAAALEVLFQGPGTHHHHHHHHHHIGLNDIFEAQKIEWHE
# T4: cynomolgus TPBG extracellular domain, His6Avi, biotinylated (cynomolgus, biotinylated)
# T4 construct: also called cyTPBG; cyno TPBG-AviHis
# T4 chain: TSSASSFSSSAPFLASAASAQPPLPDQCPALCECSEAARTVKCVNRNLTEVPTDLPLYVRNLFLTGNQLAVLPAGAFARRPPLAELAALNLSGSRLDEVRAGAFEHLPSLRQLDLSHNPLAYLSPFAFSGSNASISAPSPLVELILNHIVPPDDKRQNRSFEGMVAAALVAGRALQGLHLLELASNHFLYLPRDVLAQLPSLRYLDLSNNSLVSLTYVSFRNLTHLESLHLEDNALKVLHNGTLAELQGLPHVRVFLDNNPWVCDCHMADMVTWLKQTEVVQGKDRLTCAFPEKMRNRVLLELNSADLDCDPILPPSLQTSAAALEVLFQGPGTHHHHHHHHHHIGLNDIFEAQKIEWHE
# T5: minipig TPBG extracellular domain, His6Avi, biotinylated (minipig, biotinylated)
# T5 construct: also called mpTPBG; minipig TPBG-AviHis
# T5 chain: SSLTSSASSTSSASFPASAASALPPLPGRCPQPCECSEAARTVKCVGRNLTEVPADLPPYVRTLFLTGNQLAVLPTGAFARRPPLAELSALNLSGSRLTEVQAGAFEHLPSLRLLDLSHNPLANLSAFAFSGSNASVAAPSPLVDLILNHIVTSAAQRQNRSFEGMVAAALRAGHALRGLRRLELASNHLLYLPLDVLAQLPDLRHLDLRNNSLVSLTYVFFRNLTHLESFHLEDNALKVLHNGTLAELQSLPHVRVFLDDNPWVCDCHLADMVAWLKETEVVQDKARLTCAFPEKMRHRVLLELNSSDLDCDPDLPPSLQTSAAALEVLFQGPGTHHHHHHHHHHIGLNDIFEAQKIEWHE
# B1: anti-TPBG antibody 091, Fab fragment (Fab, V domains shown)
# VH: EVHLLESGGGLVHPGGSLRLSCAASGFTFRSDAMHWVRQAPGKGLEWVSGVSGSGGSPYYADSVKGRFTISRDDSKTTLYLQMNSLRAEDTAVYYCATGGSIAGSYYYYPMDVWGQGTTVTVSS
# VL: DIQMTQSPSSLSASVGDRVTITCQASQDISNYLNWYQQKPGKAPKLLIYAASTLQIGVPSRFSGSGSGTDFTFTISSLQPEDFATYYCQQANSFPLTFGGGTKVEIK
# notes: also called Fab2
# Key:
# [1] = molecular target: T1, human TPBG (trophoblast glycoprotein), …; experiment: cell-based or functional assay
# [2] = molecular target: T1, human TPBG (trophoblast glycoprotein), …; experiment: cell-based or functional assay; remark: listed apart in the source
# [3] = molecular target: T1, human TPBG (trophoblast glycoprotein), …; experiment: cell-based or functional assay; remark: listed apart in the source
# [4] = molecular target: T2, huTPBG (recombinant human TPBG …); experiment: SPR Biacore T200; huTPBG amine-coupled, Fab injected
# [5] = molecular target: T1, human TPBG (trophoblast glycoprotein), …; experiment: flow cytometry on SW620 clone 4 cells; ratio of MFI; replicate 1
# [6] = molecular target: T1, human TPBG (trophoblast glycoprotein), …; experiment: flow cytometry on SW620 clone 4 cells; ratio of MFI; replicate 2
# [7] = molecular target: T3, human TPBG extracellular domain, …; experiment: ELISA; biotinylated TPBG-AviHis on streptavidin plate; Fab titrated from 2 µg/ml
# [8] = molecular target: T4, cynomolgus TPBG extracellular domain, …; experiment: as above
# [9] = molecular target: T5, minipig TPBG extracellular domain, …; experiment: as above
binder,measurement,setting,value
B1,"internalization after 0.5 h, MCF7 cells",[1],16%
same,"internalization after 1.0 h, MCF7 cells",[1],33%
same,"internalization after 2.0 h, MCF7 cells",[1],42%
same,"EC50 cytotoxicity, Fab-PE sandwich construct, MCF7",[2],414 pM
same,"X-fold higher potency compared to TPBG(H8)PE, MCF7, first experiment",[2],3 fold
same,"X-fold higher potency compared to TPBG(H8)PE, MCF7, second experiment",[2],2.7 fold
same,"EC50 cytotoxicity, Fab-PE sandwich construct, H1975, replicate 1",[3],166 pM
same,"EC50 cytotoxicity, Fab-PE sandwich construct, H1975, replicate 2",[3],129 pM
same,"EC50 cytotoxicity, Fab-PE sandwich construct, H1975, replicate 3",[3],182 pM
same,Kd,[4],55.8 pM
same,koff,[4],2.72e-05 s⁻¹
same,kon,[4],487000 M⁻¹ s⁻¹
same,Fold change pH 7.2 vs pH 5.5,[5],0.9 fold
same,Fold change pH 7.2 vs pH 5.5,[6],1 fold
same,EC50,[7],0.0277 µg/mL
same,EC50,[8],1.23 µg/mL
same,EC50,[9],0.0618 µg/mL
